Biological target: the molecule itself
Test: crystal structure; hanging-drop vapor diffusion at 4°C; 20 mg/mL YukC413 in 25 mM HEPES pH 8, 175 mM NaCl, 0.04% Cymal-6 with 0.1 M MgCl2, 50 mM HEPES pH 7.5, 15% PEG 2000; molecular replacement

B1: YukC413 (YukC lacking the last 38 residues), Strep-tagged (pRSF/yukC413.strep) (domain or fragment, Bacillus subtilis 168, UniProt P71070 1-413, looked up)
chain: MSGEQKSYLENQLEAVAEKTDAGYTFTFQREKIKLLDGLEANVIKDINPFFHKEIDVTDDEVIITIQPPSSYKAFRFMKAKDKKSKWQFAYQLVQAVQQHNLSRLNLIVAPENIVFDKGLTPYFLHYGVKESIPPYERDEERVWQELKAAAALAVDGAFAFEDYLKFNETLTFSAEAKAILDAESYDDLLELIQTHIDELEAKAKTYIHIPRKKWNIQRYIGLGLIVLLVPALIYSMYALFFAQPKHQAIVDSNRAFLNKQYSEVISTLSKYDAESLPESVQYQLATSYVEVENLGSAKTKNIENNLVTLQSDPQHFLYWIDYGRGEYKEAISIGRKLEYNDYIYFALAKYKQQLLSEDTNDEDIQKELDSVNSELEKAQKERQENKQSNSETSLVDTSEEQTQTDEEKQAEE
notes: YukC (EssB) of Bacillus subtilis 168 lacking the last 38 residues at the C terminus; In the model 384 (chain A) and 377 (chain B) residues are assigned; source: E. coli BL21(DE3); purified from Cymal-6-solubilized membranes (StrepTrap, Superdex 200) for crystallization; coexpressed with YukE.his and solubilized with Triton X-100 for copurification
B1: binds.
